Test: yeast display, Sf9 membrane polyspecificity reagent, FACS + sequencing; frameworks hold sequencing errors
Method in brief: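 A synthetic nanobody library was expressed on Saccharomyces cerevisiae BJ5465 by galactose induction for 36–48 hours. The library was stained for 1 hour at 4 °C with 10% biotinylated, detergent-solubilized Sf9 membrane reagent and enriched with streptavidin microbeads before FACS. Low and high (top ~1%) gates were set on anti-HA fluorescence for expression and streptavidin fluorescence for reagent binding, and each polyreactivity label reflects the gate of origin.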

| Sequence | polyreactivity (PSR sort gate) |
| --- | --- |
| QVQLVESGGGLVQAGGSLRLSCAASGRTFVHYTMGWYRQAPGKERELVATISTSGGSTSYADSVKGRFTISRDNAKNTVYVQMNSLKPEDTAVYYCAARWYFPDRVKYVYWGQGTQVTVSS | low polyreactivity |
| QVQLVESGGGLVQAGGSLRLSCAASGSIFRWYAMGWYRQAPGKERELVAAITSGGSTYYADSVKGRFTISRDNAKNTVYLQMNSLKPEDTAVYYCNAAKLASHTYDYWGLGTQVTVSS | low polyreactivity |
| QVQHVESGGGLVQAGGSLRLSCAASGFTSTVYAMGCYRQAPGKERELVASITWSGGRTYYADSVKGRFTISRDNAKNTVYFQMNSLKPEDTAVYYCAARTYSYGSILKYYYWGQGSQVTVSS | high polyreactivity |
| QVQLVESGGGLVQAGGSLRLSCAASGLIFPYYVMGWYRQAPGKERELVAAISVSGGNTYYADSVKGRFTISRDNAKNTVYLQMNSLKPEDTAVYYCAADHYRGSYDYWGQGTQVTVSS | high polyreactivity |
| QVQLVESGGGLVQAGGSLRLSCAASGSTFQFYAMGWYRQAPGKERELVAAIRSSDDSTYYADSVKGRFTSSRDNAKNTVYLQMNSLKPEDTAVYYCAAVQDYYGVWYDYWGQGTQVTVSS | high polyreactivity |
| QVQLVESGGGLVQAGGSLRLSCAASGRIFTDYAMGWYRQAPGKERELVAAISSGGSTYYADSVKGRFTISRDNAKNTVYLQMNSLKPEDTAVYFCAAELFYGRSSSGYYYWGQGTQVTVSS | high polyreactivity |
| QVQLVESGGGLVQAGGSLRLSCAASGSIFALYAMGWYRQAPGKERELVAAISYRGGRTYYADSVKGRFTISRDNAKNTVYLQMNSLKPEDTAVYYCKAAYGTSYLYNSEFYAAFTYDYWGQGTQVTVSS | low polyreactivity |
| QDQLVDSGGGLVQAGGSLRLLCAPSGRTFGVYAMGRYIQAPGKERELVAAISRDGGSTYYADSVKGRFTISRDNAKNTVYLQMNSLIPEDTAVYYCNTDWRYRYGYWGQGTQVTVSS | high polyreactivity |
| QVQLVESGGGLVQAGGSLRLSCAASGLIFAKYAMGWYRQAPGKERELVAAITSSGAGTYYADSVKGRFTISRDNAKNTVYLQMNCLKPEDTAVYYCATGPDPKYDYWGQGTQVTVSS | high polyreactivity |
| QVQLVESGGGLVQAGGSLRLSCAASGRTFCLNAMGWYRQAPGKERELVAAISKSDDSTYYADSVKGRFTISRDNAKNTVYLQMNSLKPEDTAVYYCNADYYGWWYDTDYIGGYDYDYWGQGTQVTVSS | low polyreactivity |
| LVQLVESGGGIVQAGGSLRLTCAASGRTFWGYSMGWYRQSPGKERELVAAISWTGGRTYYADSVKGRFTISRDYAKNSVNLQMNSLKPEDTAVYDCARPYTTYDGRYHYWGQGTQVTVSS | high polyreactivity |
| QVQLVESGGGLVQAGGSLRLSFAASGSTFDWYVMGWYRQAPGKERELVAAINQGSGSTYYADSVKGRFTISRDNAKNTVYFQMNSLKPEDTAVYYCAADRYGAGYLYWPYDYWGQGTQVTVSS | low polyreactivity |
| QVHLVESGGGLVQAGGSLRLSCPASGRIFRVYAMGWYRQEPGKERELVAAISYSGGRTFYADSVKGRFTISRDNAKNTVYFQMNSLKPEDTAVYYGAAKSYYTQALPPFDYWGQGTQVTVSS | low polyreactivity |
| QVQLVESGGGIVQAGGSLRLSCAASGGIFWRYAMGWYRQAPGKERELVAAISSRGGSTYYADSVKGRFTISRDNAKNTVYLQMNSLKPEDTAVYYCAADRRYAESGYYWGHGTQVTVSS | high polyreactivity |
| QVQLVESGGGLVQAGGSLRLSCAASGRNFGSYAMGWYRQAPGKERELVAAITSGGSTYYADSVKGRFTISRDNAKNTVYLQMNSLKPEDTAVYYCAARQVRTSKLHMGYWGQGTQVTVSS | low polyreactivity |
| QVQLVESGGGLVQAGGSLRLSCAASGRTFGGNAMGWYRQAPGKERELVASITKRSGSTYYADSVKGRFTISRDNAKNTVYLQMNSLKPEDTAVYYCNTKPSYYFFANTYYGYNDDYWGQGTQVTVSS | high polyreactivity |
| QVQLVESGGGLVQAGGNLRLSCAASGFIFTRYAMGWYRPAPGKERELVAAISTSGDRTYYADSVKGRFTISRDNAKNTVYVQMHSLKPEDTAVYFCAVVRRRSVGRYVYWGQGTQVTVSS | high polyreactivity |
| QVQLVESGGGLVQAGGSLRLSCAASGRTFVRYAMGWYRQAPGKERELVAAISWSGGSTYYADSVKGRFTISRDNAKNTVYLQMNSLKPEDTAVYYCATLSAWKASSYDYWGQGTQVTVSS | high polyreactivity |
| QVQLVESGGGLVQAGGSHRLSCAASGIIFGRYAMGSYIQAPGKERELVAAITSGGSTSYSDSVKGRFTISRDNAKNTVYLQMNSLKPEDTAVYYCAARGWYVRHPQNYGYWGQGTQVTVSS | high polyreactivity |
| QVQLVESGGGLVQAGGSLRLSCAASGSTFPLYAMGWYRQAPGKERELVAAITSGGGNTYYADSVKGRFTISRDNAKNTVYLQMNSLKPEDTAVYYCAAVGGYKSYYSYEYDYWGQGTQVTVSS | low polyreactivity |
| QVQLVESGGGLVQAGGSLRLSCAASGFTIFYYAMGWYRQAPGKERELVASISWSGGSTYYADSVMGRFTISRENAKNSVYLQMNSLKPEDTAVYYCAADVPFGGDYWGQGTQVTVSS | low polyreactivity |
| QVQLEESGGGLVQAGGSLRLSCAASGIIFTVYAMGWYRQATGTERELVAAITSSGGRTYYADSVKGRFTISRDNAKNTVYLQMNSLKPEDTAVYYCAARLPGYVRKYDYWGQGTQVTVSS | high polyreactivity |

| Sequence | polyreactivity (PSR sort gate) |
| --- | --- |
| QVQLVESGGGLVQAGGSLRLSCAASGFIFTYNDMGWYRQAPGKERELVASITWDGGRTYYADAVKGRCTISRDNAKNTVYLQMISLKPEDTADYYCAKRLGGSPIQARGDYWGQGTQVTVSS | low polyreactivity |
| QVQLQESGGGLVQAGGSLRLWCAASRNISGSSDLGWYHQAPGKEREFVASITSGGTTYYADSVKGRFTISRDNAKNTVYLQMNSLKPEDTAVYYCAVGDPADAEFGYWGQGTQVTVSS | low polyreactivity |
| QVQLVESGGGLVQAGGSLRLSCAASGRIYPKYGMGWYRQAPGKERELVAAITSGTSTYYADSVKGRFTISRDNAKNTVYLQMNSLKPEDTAVYYCAARPTDGSGWPYRWTSDYWGQATQVTVSS | low polyreactivity |
| QVQLVESGGGLVQAGGSLRLSCAASGFTFLAYPMGRYRQAPGKERELVAAISKSGGSTYYADSVKGRFTISRDNAKITVYLQMNSLKPDDTAVYYSNAGRRIKFYGSYDYWGQGSQVTVSS | high polyreactivity |
| QVQLVESGGGLVQAGGSLRLSCAASGFIFKYYTMGWYRPAPGNERELVAAISKNAGSTYYADSVKGRFTISRDNAKNTVYLQMNSLKPEDTAVYYCARTYSTWYYYWGQGTQVTVSS | high polyreactivity |
| QVQLVESGGGLVQAGGSLRLSCAASGFTFRNYAMGWYRQAPGKERELVAAISKSGGSTYYADSVKGRFTISRDNAKNTVYFQMNSLKPEDSAVYYCATVYLYVYGFEYYYWGQGTQVTLSS | high polyreactivity |
| QDQLVESGGGLVQAGGSLRLSCAASGNIFKCKVMGWYRQAPGKERELVAAISRSGGRTYYADSVKGRFTISRDNAKNTVYLQMNSLKPVDTAVYYCNTKHRTKPTRPVDYWGQGTQVTVSS | high polyreactivity |
| QVQLVESGGGLGQAGGSLRLSCAASGITFVVYAMGWYRQAPGKERELVATISSGGSTNYADSVKGRFTISRDNAKNTVYLQMNSLKPEDTAVYYCNRVSVYRSSHLLWGGYWGQGTQVTVSS | low polyreactivity |
| QVQLVESGGGLVQAGGSLRLSCAASGYTLGDYSMGWYRQAPGKERELVAVITRNGGRTYYSDSVKGRFTISRDKAKNTVYLQMNSLKPEDTAVYYCNRDTSIRHYNYWGQGTQVTVSS | high polyreactivity |
| QVQLVESGGGLVQAGGSLRLSCAASGSIFQNYAMGWYRQAPGKERELVAAISWSGDTYYADSVKGRFTISRDNAKNTVYLQMNSLKPEDTAVYYCAATYPYSLYYPYYGGDYDYWGQGTQVTVSS | low polyreactivity |
| QVQLVESGGGLVQAGGSLRLSCAASGSTFEDNAMGWYRQAPGKERELVAAITTGGGSTYYADSVKGRFTISRDNAKNTVYLQMNSLKPEDTAVYYCAVYRYYGFSLWYDYWGQGTLVTVSS | low polyreactivity |
| QVQLVESGGGLVQAGGSLRLSCAASGLIFSYNAMGWYRQAPGTEMELVASITGGGSTYYADSVKGRFTISRDNAKNTVYFQIKSQKPEDTAVYYCAVVRLWYAQPAAGFRAGGGYWGQGTQVTLSS | low polyreactivity |
| QVQLVESGGGLVQAGGSLRLSCAASGLTFERNAMGWYRQAPGKERELVAAISSGGSTYYADSVKGRFTISRDNAKNTVYLQMNSLKPEDTAVYYCAVYDWNSYFYRSWWSGFYYWGQGTQVTVSS | low polyreactivity |
| QVQLVESGRGLVQAGGSLRLRCAASGFTIYPYVMGWYRQAPGKERELVAAISWSGGRTSYADSVKGRFTISRDNAKNTVYLQMNSLKPEDTAVYYCATRPSHVLSEMDYWGQGTQVTVSS | low polyreactivity |
| QVQLVESGGGLVQAGGSLRLSCAASGRIFTYNAMGWYRQAPGKERELVAVISRRGGSTYYADSVKGRFTISRDYAKNTVYFQMNSLKAEDTAVYYCAGDLPSYPYEYWGQGTQVTVSS | low polyreactivity |
| QVQLEESGGGLVQAGGSLRLSCAASGNIFSLNGMGRYRQAPGKEREFVAAITWSVGSTYYADSVKGRFSISRDNAKKTVYLQMNSLKPEDTAVYYCAATVSDLYKNEYYYWGQGTQVTVSS | low polyreactivity |
| QVQLVESGGGLVQAGGSLRLSCAASGSTFYSYAMGWYRQAPGKERELVAAITSGGSTNYADSVKGRFTISRDNAKNTVYLQMNSLKPEDTAVYYCAAVVSTVDGMEYWGQGTQVTVSS | low polyreactivity |
| QVQLVESGGGLVQAGGSLRLSCAASGSIFRPNAMGWNRQAPGKERELVAAINTSDDSTYYADSVKGRFTISRDNAKNTVYLQMNSLKPEDSAVYYCAADPRTYWTHSYYWGQGTQVTVSS | low polyreactivity |
| QVQLVESGGGIVQAGGSLRLSCAASGFTYVYYVMGWYRQAPGKDRELVAAINAGGGSTYYADSVKGRFTNSRDIAKNTVYLQMNSLKPEDTADYYCNARVRVRLGRNWSSYYYWGQGTQVTVSS | high polyreactivity |
| QVQLVESGGGLVQAGGSLRLSCAASGFIFWGNAMGWYRQAPGKERELVAAINYSGGRTYYSDSVKGRFTISRDNAKNTVYLQMNSLKPEDTAVYYCAATGPVNRASYDYWGQGTQVTVSS | high polyreactivity |
| QVQLVESGGVLVQAGGSLRLSCAASGRIFTGNAMGWYRQAPGKETELVAAISRRGTRTYYADSVKGRFTISRDNAKNTVYLQMNSLKPEDTAVYYCATVLYKAYNDYGYWGQGTQVTVSS | high polyreactivity |
